Measurements as given in patent US20130102494A1 (PIERRE FABRE MEDICAMENT, published 2013).
Values belong to the binder of their own block, whether it stands above or below them.

Biological target: T1, dimeric cMet-Fc recombinant protein (rh cMet-Fc, R&D Systems ref. 358-MT/CF) (human, UniProt P08581 25-932)
T1 construct: extracellular domain; Bought reagent; also called cMet extracellular domain fusion protein; recombinant human cMet protein; not shown: Fc part
Experiment: ELISA on coated dimeric cMet-Fc
Protocol: Obtained hybridomas were initially screened by ELISA on the dimeric cMet-Fc recombinant protein. Briefly, the recombinant human cMet protein was coated overnight at 4° C. to Immulon II 96-well plates and, after a 1 h blocking step with a 0.5% gelatine solution, pure hybridoma supernatant was added for an additional 1 h at 37° C. Then plates were washed and a goat anti-mouse (Jackson) specific IgG HRP was added for 1 h at 37° C. Reaction development was performed using the TMB substrate solution. Then a second screen was performed by FACS analysis on […] cell line, that express moderate to high levels of cMet, to be sure that the produced antibodies will be able to also recognize the native receptor on tumor cells. For that purpose 2×10⁵ cells were incubated with either 10 μg/ml of m205A5, m227D3 or m10D₉ (IgG1 isotype control Mab) for 20 min at 4° C. After 3 washing in phosphate-buffered saline (PBS) supplemented with 1% BSA and 0.01% NaN₃, cells were incubated with secondary antibody Goat anti-mouse Alexa 488 (dilution 1/500) for 20 minutes at 4° C. After 3 additional washings in PBS supplemented with 1% BSA and 0.1% NaN₃, cells were analyzed by FACS (Facscalibur, Becton-Dickinson). At least 5000 cells were assessed to calculate the mean value of fluorescence intensity.

T1 sequence (P08581 25-932): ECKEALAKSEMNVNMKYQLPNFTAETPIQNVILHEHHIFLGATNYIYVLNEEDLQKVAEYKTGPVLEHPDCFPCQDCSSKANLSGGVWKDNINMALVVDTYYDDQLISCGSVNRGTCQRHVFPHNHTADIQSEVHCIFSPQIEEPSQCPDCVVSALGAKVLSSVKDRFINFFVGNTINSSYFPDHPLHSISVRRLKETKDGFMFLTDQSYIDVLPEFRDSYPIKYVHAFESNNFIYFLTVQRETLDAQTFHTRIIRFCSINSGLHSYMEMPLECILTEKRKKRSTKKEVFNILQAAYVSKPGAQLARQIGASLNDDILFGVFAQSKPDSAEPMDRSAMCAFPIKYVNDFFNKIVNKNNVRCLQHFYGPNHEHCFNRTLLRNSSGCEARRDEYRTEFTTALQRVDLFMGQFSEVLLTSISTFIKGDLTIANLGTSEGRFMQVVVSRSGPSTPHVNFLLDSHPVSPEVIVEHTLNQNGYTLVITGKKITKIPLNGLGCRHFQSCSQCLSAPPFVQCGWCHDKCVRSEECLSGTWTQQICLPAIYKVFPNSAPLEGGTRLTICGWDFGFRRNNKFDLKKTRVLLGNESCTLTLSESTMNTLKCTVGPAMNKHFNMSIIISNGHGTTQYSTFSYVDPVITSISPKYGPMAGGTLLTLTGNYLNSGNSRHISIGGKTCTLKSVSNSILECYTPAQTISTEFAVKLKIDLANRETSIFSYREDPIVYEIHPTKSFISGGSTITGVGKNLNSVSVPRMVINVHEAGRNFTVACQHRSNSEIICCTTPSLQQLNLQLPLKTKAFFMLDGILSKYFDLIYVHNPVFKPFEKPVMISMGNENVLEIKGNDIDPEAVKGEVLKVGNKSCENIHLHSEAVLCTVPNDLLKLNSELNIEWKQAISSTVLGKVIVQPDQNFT

binding result: binds
B1: 227D3 monoclonal antibody (murine, secreted by hybridoma CNCM I-4247) (antibody, V domains shown)
VH: EVKLVESGGDLVKPGGSLQLSCAASGFTFSSYAMSWVRQTPEMRLEWVASIMGGGTTYYPDSVKGRFTISRDIARNILNLQMSSLRSEDTAIYYCARGRDYGIRSYAMDYWGQGTSVTVSS
VL: DIVMTQAAFSNPVTLGTSVSISCRSSKSLLHSNGITYLYWYLQKPGQSPQLLIYQMSNLASGVPDRFSSSGSGTDFTLRISRVEAEDVGVYYCAQNLELPYTFGGGTKLEIK
notes: Whole murine monoclonal antibody from hybridoma; mouse IgG1 isotype controls were used beside it; also called m227D3; 227D3 Mab

binding result: binds
B2: 205A5 monoclonal antibody (murine, secreted by hybridoma CNCM I-4246) (antibody, V domains shown)
VH: QVQLKQSGPGLVQPSQSLSITCTVSGFSLTDYGIQWVRQSPGQGLEWLGVIWRGGSTDYNAPFMSRLSITKDNSKSQVFFRMNSLQADDTAIYYCATSYYRYDGPFTYWGQGTLVTVSA
VL: NIVLTQSPASLAVSLGQRATISCRASESVDSNGNSFIHWYQQKPGQPPKLLIYVASKLESGVPARFSGSGSRTDFTLTIDPVEAEDVATYYCQQNNEYPLTFGAGTKLELK
notes: Whole murine monoclonal antibody from hybridoma; mouse IgG1 isotype controls were used beside it; also called m205A5; 205A5 Mab
